{"source": "patent US10005838B2", "about": "“Milk fat globule epidermal growth factor 8 regulates fatty acid uptake” (REGENTS OF THE UNIVERSITY OF CALIFORNIA, priority 2013, dated 2018)", "molecules": {"B1": {"name": "rMfge8: recombinant Milk Fat Globule Epidermal Growth Factor 8, an integrin ligand, expressed in High 5 cells (protein)", "chain": "ASGDFCDSSLCLNGGTCLTGQDNDIYCLCPEGFTGLVCNETERGPCSPNPCYNDAKCLVTLDTQRGDIFTEYICQCPVGYSGIHCETETNYYNLDGEYMFTTAVPNTAVPTPAPTPDLSNNLASRCSTQLGMEGGAIADSQISASSVYMGFMGLQRWGPELARLYRTGIVNAWTASNYDSKPWIQVNLLRKMRVSGVMTQGASRAGRAEYLKTFKVAYSLDGRKFEFIQDESGGDKEFLGNLDNNSLKVNMFNPTLEAQYIKLYPVSCHRGCTLRFELLGCELHGCSEPLGLKNNTIPDSQMSASSSYKTWNLRAFGWYPHLGRLDNQGKINAWTAQSNSAKEWLQVDLGTQRQVTGIITQGARDFGHIQYVASYKVAHSDDGVQWTVYEEQGSSKVFQGNLDNNSHKKNIFEKPFMARYVRVLPVSWHNRITLRLELLGC"}}, "key": {"3T3-L1 adipocytes": {"tested_on": "3T3-L1 adipocytes", "test": "Triglyceride content of 3T3-L1 adipocytes", "type": "cell-based, mouse", "conditions": "3T3-L1 cells; 2, 4, 6, and 8 days after treatment; 10 μg/ml", "procedure": "3T3-L1 (Zen-Bio) fibroblasts were differentiated into adipocytes as described previously (Liao, J. et al., J Lipid Res 46, 597-602 (2005)). Briefly, 3T3-L1 fibroblasts were cultured to confluence on 10 cm tissue culture plates or in 6-well tissue culture dishes in DMEM supplemented with 10% FBS and 25 mM HEPES (normal medium). 2 days after reaching confluence, media was change and 3-isobutyl-1methylxanthine (Calbiochem), dexamethasone (Sigma), and insulin (Sigma) were added to the normal medium at concentrations of 0.5 mM, 1 μM, and 5 μg/mL, respectively, to induce adipocyte differentiation. After 2 days (and every 2 days thereafter), media was replaced with normal medium supplemented with 5 μg/mL insulin. Cells were harvested for use 6-10 days after differentiation. The human hepatocellular carcinoma cell line HepG2 was a generous gift of Dr. Ethan Weiss. Cells were propagated in Eagle's MEM supplemented with 10% fetal bovine serum."}, "AKT at serine 473": {"tested_on": "AKT at serine 473", "test": "Western blot, AKT phosphorylation in 3T3-L1 cells", "type": "cell-based, mouse", "procedure": "Following tissue preparation and SDS-PAGE, membranes were incubated with a polyclonal antibody against Akt (Cell Signaling Technology), or Rictor (Cell Signaling); Anti-PGC1 alpha antibody (abcam); a monoclonal antibody against Phospho-Akt Ser473 (Cell Signaling), Phospho-Rictor Thr1135 (Cell Signaling), GAPDH (Cell Signaling), or Mfge8 (R&D Systems). For evaluation of total AKT and total Rictor, membranes that been blotted for phospho-AKT and phospho-Rictor were stripped and reprobed. Plasma membrane and post-plasma membrane fractions were isolated as previously described (Nishiumi, S. & Ashida, H., Biosci Biotechnol Biochem 71, 2343-2346 (2007))."}, "[1]": {"test": "Olive oil gavage, serum triglycerides", "type": "in vivo, mouse", "procedure": "6-8 week-old mice were fasted for 4 hours and then gavaged with 15 μL olive oil per gram body weight. Mice had access to water but not food for the remainder of the experiment. In the experiments in FIGS. 3C and 3F, 50 μg/kg body weight of recombinant protein was mixed into olive oil and administered immediately to mice by gavage. In blocking antibody experiments, integrins αv (clone RMV-7) and 05 (clone ALULA) were administered by gavaging mice with 100 μL water containing 0.5 μg antibody per gram body weight 30 minutes before olive oil gavage. Triglyceride content of serum was assayed using a commercially available kit (Sigma-Aldrich) and fatty acid concentrations were quantified by Wako (Rabot, S. et al., FASEB J 24, 4948-4959 (2010))."}, "primary hepatocytes": {"tested_on": "primary hepatocytes", "test": "Fatty acid uptake in primary hepatocytes", "type": "cell-based, mouse", "procedure": "Uptake of fatty acids by differentiated 3T3-L1 adipocytes or primary mouse adipocytes was assessed using a QBT Fatty Acid Uptake Kit (Molecular Devices). Cells were plated in triplicate in 96-well plates at a concentration of 25,000 cells per well in 100 μl of DMEM/10% FCS. Plates were centrifuged at 1000 rpm for 4 minutes and incubated at 37° Celsius for 4-5 hours. Cells were then serum deprived for 1 hour before treatment with recombinant proteins for 30 minutes followed by the addition of QBT Fatty Acid Uptake solution. […] Plates were incubated in a fluorescent plate reader at 37° Celsius and kinetic readings were acquired every 20 seconds for 30 minutes. Fluorescence values were plotted against time and data was expressed as relative fluorescent units per minutes×10^3.\nThe liver was pre-perfused through the portal vein with calcium-free buffer (0.5 mM EDTA, HBSS without Ca^2+ and Mg^2+) and next perfused with collagenase (3.5 U/ml Collegenase II (Worthington) 25 mM HEPES, HBSS with Ca^2+ and Mg^2+). […] Viability of isolated hepatocytes was determined by Trypan blue staining (around 85%) and cell density was approximately 60% confluence. […]"}, "HepG2 cells": {"tested_on": "HepG2 cells", "test": "Fatty acid uptake in HepG2 cells", "type": "cell-based", "conditions": "HepG2 human hepatocellular carcinoma cell line"}}, "data": [{"molecule": "B1", "values": [{"measurement": "triglyceride content", "setting": "3T3-L1 adipocytes", "result": "significantly greater"}, {"measurement": "phosphorylation of AKT at serine 473", "setting": "AKT at serine 473", "result": "induced"}, {"measurement": "serum triglyceride levels after olive oil gavage", "setting": "[1]; Mfge8−/− mice, 50 μg/kg recombinant protein mixed into olive oil", "result": "significantly raised"}, {"measurement": "WT serum triglyceride levels after olive oil gavage", "setting": "[1]; WT mice, recombinant protein mixed into olive oil", "result": "significantly increased"}, {"measurement": "fatty acid uptake in Mfge8−/− hepatocytes", "setting": "primary hepatocytes", "result": "rescued"}, {"measurement": "fatty acid uptake in HepG2 cells", "setting": "HepG2 cells", "result": "increased"}]}]}
